Reference: paper PMC7415141, “Identification and characterization of cytosolic malate dehydrogenase from the liver fluke Fasciola gigantica” (Scientific Reports, 2020)

Assays:
[1] = target: cytosolic malate dehydrogenase from Fasciola gigantica (Fasciola gigantica); assay: SEC; gel filtration on Superdex 200 (AKTA FPLC), buffer B (50 mM phosphate pH 7.6, 150 mM NaCl, 10% glycerol), room temperature, 0.3 mL/min; column calibrated with mass standards; single peak at about 15.3 mL, ~72 kDa against ~36 kDa for the monomer
purified protein [2] = substrate: NC(=O)C1=CN([C@@H]2O[C@H](COP(=O)(O)OP(=O)(O)OC[C@H]3O[C@@H](n4cnc5c(N)ncnc54)[C@H](O)[C@@H]3O)[C@@H](O)[C@H]2O)C=CC1; assay: purified protein; type: biochemical, Fasciola gigantica; conditions: co-substrate oxaloacetate (0.2 mM), 50 mM Tris-Cl, pH 8.0, 25 °C, 50 nM enzyme, varied: cofactor
purified protein [3] = substrate: O=C(O)CC(=O)C(=O)O; assay: purified protein; type: biochemical, Fasciola gigantica; conditions: co-substrate NADH (0.21 mM), 50 mM Tris-Cl, pH 8.0, 25 °C, 50 nM enzyme
purified protein [4] = substrate: NC(=O)c1ccc[n+]([C@@H]2O[C@H](COP(=O)(O)OP(=O)(O)OC[C@H]3O[C@@H](n4cnc5c(N)ncnc54)[C@H](O)[C@@H]3O)[C@@H](O)[C@H]2O)c1; assay: purified protein; type: biochemical, Fasciola gigantica; conditions: co-substrate malate (assay text: 3 mM, misprinted as MDH), 50 mM glycine buffer, pH 9.6, 25 °C, 50 nM enzyme, varied: cofactor
purified protein [5] = substrate: O=C(O)C[C@H](O)C(=O)O; assay: purified protein; type: biochemical, Fasciola gigantica; conditions: co-substrate NAD+ (0.5 mM), 50 mM glycine buffer, pH 9.6, 25 °C, 50 nM enzyme

Molecule: cytosolic malate dehydrogenase from Fasciola gigantica (enzyme)
- stoichiometry N [1]: 2

B1: FgMDH (cytosolic malate dehydrogenase of Fasciola gigantica) (Fasciola gigantica) (protein)
chain: MAPVKVLITGAAGQIGYNLAGMVARGDMLGPNQELILHLFDITPMLNSLHGLQMELDDCAFPLVREVVITDKAEVAFDDIDIALMVGAMPRKEGMERKDLLQANANIFKEQGKVLNEKAKKTVKVIVVGNPANTNALIMMKNAPSIPKENFSAMTRLDHNRATAQIAKRLKIPCTAVKNCVIWGNHSATQFPDVSHAVASIGGKDVKVWDAIKDEEWLKNEFVTTVQKRGAAVIAARKLSSAMSAAKAVVDHIHDWWYGTKPGEWVSMSVWSDGSYGAPVDVFFSFPVEIKDKKWTIVKDLSMDDWGKSMFKTTAEELSEEKVAALGK
notes: ~36 kDa, dimer ~72 kDa
- Km (purified protein [2]): 141 ± 54 µM
- Vmax (purified protein [2]): 3.42 µmol/min
- Km (purified protein [3]): 276 ± 92 µM
- Vmax (purified protein [3]): 4.1 µmol/min
- Km (purified protein [4]): 309 ± 15 µM
- Vmax (purified protein [4]): 18.7 µmol/min
- Km (purified protein [5]): 447 ± 47 µM
- Vmax (purified protein [5]): 5.45 µmol/min
